In doi:10.1101/2021.04.16.440108 (bioRxiv, 2021):

B1: Transgelin 3 (TAGLN3) (natural protein, human, UniProt Q9UI15 1-199, looked up)
chain: MANRGPSYGLSREVQEKIEQKYDADLENKLVDWIILQCAEDIEHPPPGRAHFQKWLMDGTVLCKLINSLYPPGQEPIPKISESKMAFKQMEQISQFLKAAETYGVRTTDIFQTVDLWEGKDMAAVQRTLMALGSVAVTKDDGCYRGEPSWFHRKAQQNRRGFSEEQLRQGQNVIGLQMGSNKGASQAGMTGYGMPRQIM
B2: IκBα (natural protein, UniProt P25963 1-317, looked up)
chain: MFQAAERPQEWAMEGPRDGLKKERLLDDRHDSGLDSMKDEEYEQMVKELQEIRLEPQEVPRGSEPWKQQLTEDGDSFLHLAIIHEEKALTMEVIRQVKGDLAFLNFQNNLQQTPLHLAVITNQPEIAEALLGAGCDPELRDFRGNTPLHLACEQGCLASVGVLTQSCTTPHLHSILKATNYNGHTCLHLASIHGYLGIVELLVSLGADVNAQEPCNGRTALHLAVDLQNPDLVSLLLKCGADVNRVTYQGYSPYQLTWGRPSTRIQQQLGQLTLENLQMLPESEDEESYDTESEFTEFTEDELPYDDCVFGGQRLTL

Key:
IκBα = molecular target: B2; assay: nanoDSF
Transgelin 3 (TAGLN3) = molecular target: B1; assay: nanoDSF

Binder | Kd (IκBα) | Tm of TAGLN3 with 6-fold excess of IκBα (free TAGLN3: 56.8°C) (Transgelin 3 (TAGLN3))
B1 | 10 µM | –
B2 | – | 61 °C
